Tests used:
[1] = molecular target: T1, biotin-labeled human DLL4 extracellular domain (human, UniProt Q9NR61 27-529, biotin-labeled); assay: DLL4 capture ELISA, DVD-Ig captured by anti-human Fc, biotin-labeled human DLL4 ECD
T1 construct: extracellular domain

biotinylated VEGF = biotinylated VEGF (UniProt P15692-4 27-191, limits assumed, biotinylated); assay: VEGF capture ELISA, DVD-Ig captured by anti-human Fc, biotinylated VEGF
[2] = molecular target: T2, placental growth factor (PLGF) (UniProt P49763-2 21-149, limits assumed); assay: ligand-receptor binding competition assay, PlGF binding to VEGFR1; N-terminal VD
T2 construct: also called P1GF
T2 sequence (looked up): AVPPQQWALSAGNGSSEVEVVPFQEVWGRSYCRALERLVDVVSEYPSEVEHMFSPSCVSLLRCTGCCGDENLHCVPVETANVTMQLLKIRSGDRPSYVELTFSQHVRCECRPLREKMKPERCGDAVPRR

[3] = molecular target: T3, human DLL4 extracellular domain (human, UniProt Q9NR61 27-529, biotin label in the Notch-1 competition ELISA (sites not given)); assay: cell-based or functional assay
[4] = molecular target: T3, human DLL4 extracellular domain; assay: competition ELISA: 14 nM biotin-labelled human DLL4 ECD pre-mixed with DVD-Ig, then on coated human Notch-1 (competitor Notch-1)
[5] = molecular target: T4, human DLL4 on 293G-human DLL4 cells (human, UniProt Q9NR61 27-685); assay: FACS: inhibition of Notch1 binding to 293G-human DLL4 cells (competitor Notch1)
T4 construct: whole, on cells; no method paragraph describes this FACS assay

B1: DVD471 (bispecific antibody, human IgG1, kappa, L234A L235A)
heavy: not shown
light: DIQMTQSPSSLSASVGDRVTITCRASQDVSTAVAWYQQKPGKAPKLLIYSASFLYSGVPSRFSGSGSGTDFTLTISSLQPEDFATTYYCQQSYTGTVTFGQGTKVEIKRTVAAPSVFIFPPDIQMTQSPSSLSASVGDRVTITCRASQDVSTAVAWYQQKPGKAPKLLIYSASFLYSGVPSRFSGSGSGTDFTLTISSLQPEDFATYYCQQSYTTPPTFGQGTKVEIKRTVAAPSVFIFPPSDEQLKSGTASVVCLLNNFYPREAKVQWKVDNALQSGNSQESVTEQDSKDSTYSLSSTLTLSKADYEKHKVYACEVTHQGLSSPVTKSFNRGEC
notes: DVD-Ig, HC long / LC long; DLL4 domain N-terminal; also called DLL4 / VEGF DVD-Ig; DVD471H
- EC50 [1]: 0.17 nM
- EC50 (biotinylated VEGF): 0.56 nM

B2: DVD597 (bispecific antibody, human IgG1, kappa)
heavy: not shown
light: DIVLTQSPDSLAVSLGERVTMNCKSSQSLLNSGMRKSFLAWYQQKPGQSPKLLIYWASTRESGVPDRFTGSGSGTDFTLTISSVQAEDVAVYYCKQSYHLFTFGSGTKLEIKRTVAAPSVFIFPPDIQMTQSPSSLSASVGDRVTITCRASQDVSTAVAWYQQKPGKAPKLLIYSASFLYSGVPSRFSGSGSGTDFTLTISSLQPEDFATYYCQQSYTTPPTFGQGTKVEIKRTVAAPSVFIFPPSDEQLKSGTASVVCLLNNFYPREAKVQWKVDNALQSGNSQESVTEQDSKDSTYSLSSTLTLSKADYEKHKVYACEVTHQGLSSPVTKSFNRGEC
notes: also called DVD597VH; DVD597VL
- IC50 [2]: 2.94 nM

B3: DVD589 (bispecific antibody, human IgG1, kappa)
heavy: not shown
light: DIVLTQSPDSLAVSLGERVTMNCKSSQSLLNSGMRKSFLAWYQQKPGQSPKLLIYWASTRESGVPDRFTGSGSGTDFTLTISSVQAEDVAVYYCKQSYHLFTFGSGTKLEIKRTVAAPDIQMTQSPSSLSASVGDRVTITCRASQDVSTAVAWYQQKPGKAPKLLIYSASFLYSGVPSRFSGSGSGTDFTLTISSLQPEDFATYYCQQSYTTPPTFGQGTKVEIKRTVAAPSVFIFPPSDEQLKSGTASVVCLLNNFYPREAKVQWKVDNALQSGNSQESVTEQDSKDSTYSLSSTLTLSKADYEKHKVYACEVTHQGLSSPVTKSFNRGEC
notes: also called DVD589VH; DVD589VL
- IC50 [2]: 2.87 nM

B4: DVD583 (bispecific antibody, human IgG1, kappa)
heavy: not shown
light: DIVLTQSPDSLAVSLGERVTMNCKSSQSLLNSGMRKSFLAWYQQKPGQSPKLLIYWASTRESGVPDRFTGSGSGTDFTLTISSVQAEDVAVYYCKQSYHLFTFGSGTKLEIKRTVAAPSVFIFPPDIQMTQSPSSLSASVGDRVTITCRASQVIRRSLAWYQQKPGKAPKLLIYAASNLASGVPSRFSGSGSGTDFTLTISSLQPEDFATYYCQQSNTSPLTFGQGTKVEIKRTVAAPSVFIFPPSDEQLKSGTASVVCLLNNFYPREAKVQWKVDNALQSGNSQESVTEQDSKDSTYSLSSTLTLSKADYEKHKVYACEVTHQGLSSPVTKSFNRGEC
notes: DVD-Ig, N-term PlGF (AB047) / C-term VEGF (AB071); also called DVD583H; DVD583L
- IC50 [2]: 3.25 nM

B5: DVD599 (bispecific antibody, human IgG1, kappa)
heavy: not shown
light: DIVLTQSPDSLAVSLGERVTMNCKSSQSLLNSGMRKSFLAWYQQKPGQSPKLLIYWASTRESGVPDRFTGSGSGTDFTLTISSVQAEDVAVYYCKQSYHLFTFGSGTKLEIKRTVAAPSVFIFPPDIQMTQSPSSLSASVGDRVTITCRASQVIRRSLAWYQQKPGKAPKLLIYAASNLASGVPSRFSGSGSGTDFTLTISSLQPEDFATYYCQQSNTSPLTFGQGTKVEIKRTVAAPSVFIFPPSDEQLKSGTASVVCLLNNFYPREAKVQWKVDNALQSGNSQESVTEQDSKDSTYSLSSTLTLSKADYEKHKVYACEVTHQGLSSPVTKSFNRGEC
notes: DVD-Ig, N-term PlGF (AB047) / C-term VEGF (AB071); also called DVD599VH; DVD599VL
- IC50 [2]: 3.19 nM

B6: DVD485 (bispecific antibody, human IgG1, kappa)
heavy: not shown
light: DIQMTQSPSSLSASVGDRVTITCRASQDVSTAVAWYQQKPGKAPKLLIYSASFLYSGVPSRFSGSGSGTDFTLTISSLQPEDFATTYYCQQSYTGTVTFGQGTKVEIKRTVAAPSVFIFPPDIQMTQSPSSLSASVGDRVTITCRASQVIRRSLAWYQQKPGKAPKLLIYAASNLASGVPSRFSGSGSGTDFTLTISSLQPEDFATYYCQQSNTSPLTFGQGTKVEIKRTVAAPSVFIFPPSDEQLKSGTASVVCLLNNFYPREAKVQWKVDNALQSGNSQESVTEQDSKDSTYSLSSTLTLSKADYEKHKVYACEVTHQGLSSPVTKSFNRGEC
notes: DVD-Ig, HC short / LC long; DLL4 domain N-terminal; also called DLL4 / VEGF DVD-Ig; DVD485H
- EC50 [1]: 5.45 nM
- EC50 (biotinylated VEGF): 2.5 nM

B7: DVD474 (VEGF (AB071) N-terminal / DLL4 (seq. 1) C-terminal DVD-Ig, long HC linker, long LC linker) (bispecific antibody, human IgG1, kappa)
heavy: not shown
light: DIQMTQSPSSLSASVGDRVTITCRASQVIRRSLAWYQQKPGKAPKLLIYAASNLASGVPSRFSGSGSGTDFTLTISSLQPEDFATYYCQQSNTSPLTFGQGTKVEIKRTVAAPSVFIFPPDIQMTQSPSSLSASVGDRVTITCRASQDVSTAVAWYQQKPGKAPKLLIYSASFLYSGVPSRFSGSGSGTDFTLTISSLQPEDFATTYYCQQSYTGTVTFGQGTKVEIKRTVAAPSVFIFPPSDEQLKSGTASVVCLLNNFYPREAKVQWKVDNALQSGNSQESVTEQDSKDSTYSLSSTLTLSKADYEKHKVYACEVTHQGLSSPVTKSFNRGEC
notes: also called DVD474H/DVD474L
- DVD-Ig Inhibition of sFlt1 (IC50, nM) [3]: 0.93 nM
- IC50 [4]: 2.3 nM
- IC50 [5]: 27.5 nM

B8: DVD474 (bispecific antibody, human IgG1, kappa)
heavy: not shown
light: DIQMTQSPSSLSASVGDRVTITCRASQVIRRSLAWYQQKPGKAPKLLIYAASNLASGVPSRFSGSGSGTDFTLTISSLQPEDFATYYCQQSNTSPLTFGQGTKVEIKRTVAAPSVFIFPPDIQMTQSPSSLSASVGDRVTITCRASQDVSTAVAWYQQKPGKAPKLLIYSASFLYSGVPSRFSGSGSGTDFTLTISSLQPEDFATTYYCQQSYTGTVTFGQGTKVEIKRTVAAPSVFIFPPSDEQLKSGTASVVCLLNNFYPREAKVQWKVDNALQSGNSQESVTEQDSKDSTYSLSSTLTLSKADYEKHKVYACEVTHQGLSSPVTKSFNRGEC
notes: DVD-Ig, HC long / LC long; DLL4 domain C-terminal; also called VEGF / DLL4 DVD-Ig; DVD474H
- EC50 [1]: 0.14 nM
- EC50 (biotinylated VEGF): 1.65 nM

B9: DVD486 (VEGF (AB071) N-terminal / DLL4 (seq. 1) C-terminal DVD-Ig, short HC linker, long LC linker) (bispecific antibody, human IgG1, kappa)
heavy: not shown
light: DIQMTQSPSSLSASVGDRVTITCRASQVIRRSLAWYQQKPGKAPKLLIYAASNLASGVPSRFSGSGSGTDFTLTISSLQPEDFATYYCQQSNTSPLTFGQGTKVEIKRTVAAPSVFIFPPDIQMTQSPSSLSASVGDRVTITCRASQDVSTAVAWYQQKPGKAPKLLIYSASFLYSGVPSRFSGSGSGTDFTLTISSLQPEDFATTYYCQQSYTGTVTFGQGTKVEIKRTVAAPSVFIFPPSDEQLKSGTASVVCLLNNFYPREAKVQWKVDNALQSGNSQESVTEQDSKDSTYSLSSTLTLSKADYEKHKVYACEVTHQGLSSPVTKSFNRGEC
notes: also called DVD486H/DVD486L
- DVD-Ig Inhibition of sFlt1 (IC50, nM) [3]: 0.7 nM
- IC50 [4]: 2.91 nM
- IC50 [5]: 10.2 nM

B10: DVD486 (bispecific antibody, human IgG1, kappa)
heavy: not shown
light: DIQMTQSPSSLSASVGDRVTITCRASQVIRRSLAWYQQKPGKAPKLLIYAASNLASGVPSRFSGSGSGTDFTLTISSLQPEDFATYYCQQSNTSPLTFGQGTKVEIKRTVAAPSVFIFPPDIQMTQSPSSLSASVGDRVTITCRASQDVSTAVAWYQQKPGKAPKLLIYSASFLYSGVPSRFSGSGSGTDFTLTISSLQPEDFATTYYCQQSYTGTVTFGQGTKVEIKRTVAAPSVFIFPPSDEQLKSGTASVVCLLNNFYPREAKVQWKVDNALQSGNSQESVTEQDSKDSTYSLSSTLTLSKADYEKHKVYACEVTHQGLSSPVTKSFNRGEC
notes: DVD-Ig, HC short / LC long; DLL4 domain C-terminal; also called VEGF / DLL4 DVD-Ig; DVD486H
- EC50 [1]: 0.16 nM
- EC50 (biotinylated VEGF): 0.53 nM

B11: DVD591 (bispecific antibody, human IgG1, kappa)
heavy: not shown
light: DIVLTQSPDSLAVSLGERVTMNCKSSQSLLNSGMRKSFLAWYQQKPGQSPKLLIYWASTRESGVPDRFTGSGSGTDFTLTISSVQAEDVAVYYCKQSYHLFTFGSGTKLEIKRTVAAPDIQMTQSPSSLSASVGDRVTITCRASQVIRRSLAWYQQKPGKAPKLLIYAASNLASGVPSRFSGSGSGTDFTLTISSLQPEDFATYYCQQSNTSPLTFGQGTKVEIKRTVAAPSVFIFPPSDEQLKSGTASVVCLLNNFYPREAKVQWKVDNALQSGNSQESVTEQDSKDSTYSLSSTLTLSKADYEKHKVYACEVTHQGLSSPVTKSFNRGEC
notes: DVD-Ig, N-term PlGF (AB047) / C-term VEGF (AB071); also called DVD591VH; DVD591VL
- IC50 [2]: 3.23 nM

B12: DVD470 (bispecific antibody, human IgG1, kappa)
heavy: not shown
light: DIQMTQSPSSLSASVGDRVTITCSASQDISNYLNWYQQKPGKAPKVLIYFTSSLHSGVPSRFSGSGSGTDFTLTISSLQPEDFATYYCQQYSTVPWTFGQGTKVEIKRTVAAPSVFIFPPDIQMTQSPSSLSASVGDRVTITCRASQDVSTAVAWYQQKPGKAPKLLIYSASFLYSGVPSRFSGSGSGTDFTLTISSLQPEDFATTYYCQQSYTGTVTFGQGTKVEIKRTVAAPSVFIFPPSDEQLKSGTASVVCLLNNFYPREAKVQWKVDNALQSGNSQESVTEQDSKDSTYSLSSTLTLSKADYEKHKVYACEVTHQGLSSPVTKSFNRGEC
notes: DVD-Ig, HC long / LC long; DLL4 domain C-terminal; also called VEGF / DLL4 DVD-Ig; DVD470H
- EC50 [1]: 0.16 nM
- EC50 (biotinylated VEGF): 0.27 nM

B13: DVD482 (bispecific antibody, human IgG1, kappa)
heavy: not shown
light: DIQMTQSPSSLSASVGDRVTITCSASQDISNYLNWYQQKPGKAPKVLIYFTSSLHSGVPSRFSGSGSGTDFTLTISSLQPEDFATYYCQQYSTVPWTFGQGTKVEIKRTVAAPSVFIFPPDIQMTQSPSSLSASVGDRVTITCRASQDVSTAVAWYQQKPGKAPKLLIYSASFLYSGVPSRFSGSGSGTDFTLTISSLQPEDFATTYYCQQSYTGTVTFGQGTKVEIKRTVAAPSVFIFPPSDEQLKSGTASVVCLLNNFYPREAKVQWKVDNALQSGNSQESVTEQDSKDSTYSLSSTLTLSKADYEKHKVYACEVTHQGLSSPVTKSFNRGEC
notes: DVD-Ig, HC short / LC long; DLL4 domain C-terminal; also called VEGF / DLL4 DVD-Ig; DVD482H
- EC50 [1]: 0.17 nM
- EC50 (biotinylated VEGF): 0.22 nM

B14: DVD476 (bispecific antibody, human IgG1, kappa)
heavy: not shown
light: DIQMTQSPSSLSASVGDRVTITCSASQDISNYLNWYQQKPGKAPKVLIYFTSSLHSGVPSRFSGSGSGTDFTLTISSLQPEDFATYYCQQYSTVPWTFGQGTKVEIKRTVAAPDIQMTQSPSSLSASVGDRVTITCRASQDVSTAVAWYQQKPGKAPKLLIYSASFLYSGVPSRFSGSGSGTDFTLTISSLQPEDFATTYYCQQSYTGTVTFGQGTKVEIKRTVAAPSVFIFPPSDEQLKSGTASVVCLLNNFYPREAKVQWKVDNALQSGNSQESVTEQDSKDSTYSLSSTLTLSKADYEKHKVYACEVTHQGLSSPVTKSFNRGEC
notes: DVD-Ig, HC long / LC short; DLL4 domain C-terminal; also called VEGF / DLL4 DVD-Ig; DVD476H
- EC50 [1]: 0.21 nM
- EC50 (biotinylated VEGF): 0.22 nM

Source: patent publication US20100260668A1 (published 2010)
